# Reference: the supplement of paper PMC10567573
# Test: protein stability index of a GFP-peptide fusion (GPS, HEK-293T) (PSI 1-6); higher = more stable
# Conditions: parent: NP_002788.1; c terminus: native
# 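Further: lentivirally expressed fusion library, cells FACS-sorted into six equal-sized GFP/DsRed ratio bins, PSI computed from sequencing read fractions per bin weighted by bin number.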
row,Protein,protein stability index
1,DGWIRVSSDNVADLHEKYSGSTPD [PSMB5 addD],4.37
2,DGWIRVSSDNVADLHEKYSGSTPM [PSMB5 addM],2.89

# Same assay, conditions: parent: NP_006221.1; c terminus: native
row,Protein,protein stability index
1,CQPISFSGFGAEDDDLGGLGLGPD [POLD2 addD],2.2
2,CQPISFSGFGAEDDDLGGLGLGPM [POLD2 addM],2.38

# Same assay, conditions: parent: NP_009172.2; c terminus: native
row,Protein,protein stability index
1,LPALFTDLYSQEITAEEAREALPD [SNF8 addD],5.09
2,LPALFTDLYSQEITAEEAREALPM [SNF8 addM],3.04

# Same assay, conditions: parent: NP_015628.1; c terminus: native
row,Protein,protein stability index
1,EQRNSRWNTVLRAVKAKTHHLEPD [TRPA1 addD],3.91
2,EQRNSRWNTVLRAVKAKTHHLEPM [TRPA1 addM],4.79

# Same assay, conditions: parent: NP_116010.1; c terminus: native
row,Protein,protein stability index
1,HSLRAVSTDPPHHDHHDEFCLMPD [BEX2 addD],4.42
2,HSLRAVSTDPPHHDHHDEFCLMPM [BEX2 addM],3.52
